Source: the supplement of paper PMC10126150
± gives the standard deviation of the averaged measurements.

Test system: ATP
Test: switch fluorescence ratio, 500 uM ATP over buffer (Cy3 cluster intensity, sum of 5 cycles each) (fold (ratio)); higher = stronger signal-on switching upon ATP binding; sequences stand for … in TCGTCGGCAGCGTCAGATGTGTATAAGAGACAGTTTTTTTTTTTTTTTTTTTTTTTTT…TC
Conditions: aptamer strand: ATP DNA aptamer (quencher-CACCTGGGGGAGTATTGCGGAGGAAGG + anchor), 100 nM annealed; ATP concentration: 500 uM
Summary of the method: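 For every switch-domain sequence, the fluorescence ratio is the mean of per-cluster values, each being summed target-cycle Cy3 intensity over summed buffer-cycle Cy3 intensity. Clusters outside 100-1000 RFU were excluded. On a modified Illumina MiSeq flow-cell, the Cy3-labelled switching-strand clusters were annealed to 100 nM quencher-labelled ATP aptamer, imaged in selection buffer and then after 15 min with 500 uM ATP at 22 °C. Five such cycles were run, with NaOH stripping and re-annealing between them.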
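Further: ATP exposure 15 min at 22 °C before imaging.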

| Sequence | switch fluorescence ratio |
| --- | --- |
| GCCCTGAGCA | 1.01 ± 0.026 |
| GTTAGAGAGC | 1.06 ± 0.0068 |
| TAGAGGGAGG | 0.967 ± 0.014 |
| ATATATCGGG | 0.999 ± 0.013 |
| TTGTCATTTT | 1.04 ± 0.067 |
| TAGGTATGGG | 0.9955 ± 0.002 |
| GAGGAAATCA | 0.9877 ± 0.008 |
| TCTAAATAGG | 0.9908 ± 0.0032 |
| GAATTAATCG | 0.988 ± 0.039 |
| AGACCTCTTT | 0.988 ± 0.02 |
| TAAGTGCAT | 1.0026 ± 4.4e-05 |
| GGTGTCAGGG | 0.989 ± 0.013 |
| AAGAGGGCTT | 0.994 ± 0.016 |
| ATCCGGGACC | 1.06 ± 0.02 |
| TTTAAAATCT | 1.016 ± 0.0092 |
| GATTTGGTTG | 0.963 ± 0.026 |
| ATGTTATAGT | 0.98 ± 0.04 |
| TGAATGAGTT | 1.02 ± 0.03 |
| TTTTACAGCA | 1.04 ± 0.03 |
| TCAGACTGTT | 1.01 ± 0.013 |
| GTCTCAGGTT | 1.04 ± 0.014 |
| TGGAATTAGC | 1.04 ± 0.054 |
| TCGTGAGGTT | 1.01 ± 0.012 |
| GGTACTTTTT | 1.07 ± 0.14 |
| TTAGGGTAGG | 0.97 ± 0.039 |

| Sequence | switch fluorescence ratio |
| --- | --- |
| ATGAGTGGAG | 1.034 ± 0.004 |
| AAAATGAGCC | 1.036 ± 0.00036 |
| TGGGGGGTTA | 0.995 ± 0.024 |
| AAACTTGCCC | 1.09 ± 0.012 |
| GTAGCAGGCG | 1.13 ± 0.058 |
| TAGATGGGAT | 0.976 ± 0.014 |
| CCGAATGAGG | 0.995 ± 0.032 |
| GAGAAATTCC | 1.07 ± 0.021 |
| AAAATTGGGG | 1.02 ± 0.039 |
| GGGATTTGTG | 0.972 ± 0.01 |
| GGTATAATTT | 1.04 ± 0.044 |
| CAGCTACGTG | 1.0258 ± 0.00037 |
| CTATATGAAG | 0.9802 ± 0.0067 |
| TAACGTGGGA | 0.996 ± 0.058 |
| CGGTACCGTG | 0.9844 ± 0.007 |
| ACTGAATCCT | 1.08 ± 0.028 |
| TATGAGGGGC | 0.967 ± 0.013 |
| AATTTGACAT | 1.03 ± 0.02 |
| TAGGGCCGTG | 0.977 ± 0.0059 |
| CTGAGGAGGA | 1.031 ± 0.0076 |
| GGATTTTTGG | 0.989 ± 0.036 |
| TGCAGCATTA | 2.31 ± 0.19 |
| CTAAATGGGA | 1.01 ± 0.029 |
| GGTTGGGGCA | 0.985 ± 0.049 |
| GATCAGTTTT | 0.977 ± 0.016 |

| Sequence | switch fluorescence ratio |
| --- | --- |
| AACGGGTATG | 1.011 ± 0.004 |
| AATAATCGAG | 1.027 ± 0.0093 |
| ACGGTTGTAC | 1.1813 ± 0.001 |
| TAGCTTGTTT | 1.02 ± 0.022 |
| GTTTTGGGGG | 1.02 ± 0.025 |
| CCGGGGGGCT | 1.09 ± 0.043 |
| ATTTGTGTGG | 0.973 ± 0.021 |
| GGGCACGTTT | 0.995 ± 0.011 |
| AATATGAGAT | 0.9799 ± 0.0073 |
| ATGAAGAGAG | 0.9897 ± 0.0069 |
| CTTGCGTCAC | 1.18 ± 0.044 |
| GTGTAAAGTG | 0.949 ± 0.047 |
| GGAGGAAGGG | 0.983 ± 0.025 |
| GTTGTTATTT | 1 ± 0.011 |
| AGGAGTACCA | 1.04 ± 0.015 |
| ACAGCGCCGG | 1.018 ± 0.002 |
| TTGCTATGAA | 1.01 ± 0.054 |
| ATACGAGGTG | 1.07 ± 0.035 |
| GGCCTCCTGT | 1.02 ± 0.033 |
| GGCATAAGGG | 1.03 ± 0.05 |
| TGTTTGAAGT | 0.989 ± 0.023 |
| TGTGTTGGGG | 0.969 ± 0.024 |
| TTTTTTACTA | 1.023 ± 0.0015 |
| TTTAGTTGAC | 0.9956 ± 0.0092 |
| AGATCTTGTG | 1 ± 0.022 |

| Sequence | switch fluorescence ratio |
| --- | --- |
| CGGTGGGTGT | 0.931 ± 0.011 |
| GTGGTCGGTA | 0.952 ± 0.084 |
| AGGTTTTTGA | 0.991 ± 0.04 |
| TTTATTTGTA | 0.99 ± 0.035 |
| GGGAAAAAGT | 0.985 ± 0.027 |
| CCTGTTGGTT | 0.955 ± 0.033 |
| ATCTACATTA | 1.04 ± 0.015 |
| TTTTTATAAC | 1 ± 0.031 |
| GCTGTGTGTC | 1.006 ± 0.0024 |
| TATAGTCTTT | 0.983 ± 0.015 |
| TATTTGTATG | 0.9919 ± 0.003 |
| TGTTCAGGGA | 1.048 ± 0.0073 |
| CGAAGCGCCC | 4.36 ± 3 |
| CTTTGGCTGA | 0.998 ± 0.025 |
| CACTATTAGT | 0.979 ± 0.01 |
| GGTATACTGT | 0.975 ± 0.029 |
| ATGGGACGGC | 0.998 ± 0.032 |
| CATGATTAGT | 0.951 ± 0.041 |
| GATGGACGTT | 0.995 ± 0.035 |
| ACTTATAATT | 1.02 ± 0.027 |
| GGCTCTGATG | 1.01 ± 0.011 |
| TGCAAGTTTT | 1.24 ± 0.33 |
| ATAGAAGTTA | 0.985 ± 0.031 |
| AGTAGAGGTT | 1.008 ± 0.0064 |
| GTGTGACACG | 1.04 ± 0.064 |
